Holding throughout (format): biochemical, Metallosphaera sedula
Substrate in data set [1]: C/C=C/C(=O)SCCNC(=O)CCNC(=O)[C@H](O)C(C)(C)COP(=O)(O)OP(=O)(O)OC[C@H]1O[C@@H](n2cnc3c(N)ncnc32)[C@H](O)[C@@H]1OP(=O)(O)O
Kind of data set: UHPLC, 3-hydroxybutyryl-CoA formation. The note with it: hydratase reaction, 100 mM Tris-HCl pH 7.8, 65 °C, apparent Km. The text has this:
UHPLC, 3-hydroxybutyryl-CoA formation on crotonyl-CoA hydratase Msed_0384

Substrate in data set [2]: C[C@H](O)CC(=O)SCCNC(=O)CCNC(=O)[C@H](O)C(C)(C)COP(=O)(O)OP(=O)(O)OC[C@H]1O[C@@H](n2cnc3c(N)ncnc32)[C@H](O)[C@@H]1OP(=O)(O)O
The experiment in a line: Ccr-coupled dehydratase assay, UHPLC. The note with it: dehydratase reaction, 100 mM Tris-HCl pH 7.8, 42 °C, 1 mM NADPH and NaHCO3 for coupling enzyme, apparent Km. The text has this:
Ccr-coupled dehydratase assay, UHPLC on crotonyl-CoA hydratase Msed_0384

Substrate in data set [3]: CCCCC/C=C/C(=O)SCCNC(=O)CCNC(=O)[C@H](O)C(C)(C)COP(=O)(O)OP(=O)(O)OC[C@H]1O[C@@H](n2cnc3c(N)ncnc32)[C@H](O)[C@@H]1OP(=O)(O)O
Kind of data set: UHPLC, 3-hydroxyoctanoyl-CoA formation. The note with it: hydratase reaction, 100 mM Tris-HCl pH 7.8, 65 °C, apparent Km. The text has this:
UHPLC, 3-hydroxyoctanoyl-CoA formation on crotonyl-CoA hydratase Msed_0384

Substrate in data set [4]: C=CC(=O)SCCNC(=O)CCNC(=O)[C@H](O)C(C)(C)COP(=O)(O)OP(=O)(O)OC[C@H]1O[C@@H](n2cnc3c(N)ncnc32)[C@H](O)[C@@H]1OP(=O)(O)O
Kind of data set: UHPLC, 3-hydroxypropionyl-CoA formation. The note with it: hydratase reaction, 100 mM Tris-HCl pH 7.8, 65 °C, apparent Km. The text has this: UHPLC, 3-hydroxypropionyl-CoA formation on crotonyl-CoA hydratase Msed_0384

Substrate in data set [5]: C=C(C)C(=O)SCCNC(=O)CCNC(=O)[C@H](O)C(C)(C)COP(=O)(O)OP(=O)(O)OC[C@H]1O[C@@H](n2cnc3c(N)ncnc32)[C@H](O)[C@@H]1OP(=O)(O)O
The experiment in a line: UHPLC, 3-hydroxy-2-methylpropionyl-CoA formation. The note with it: hydratase reaction, 100 mM Tris-HCl pH 7.8, 65 °C, apparent Km. The text has this: UHPLC, 3-hydroxy-2-methylpropionyl-CoA formation on crotonyl-CoA hydratase Msed_0384

Substrate in data set [6]: C=CC(=O)SCCNC(=O)CCNC(=O)[C@H](O)C(C)(C)COP(=O)(O)OP(=O)(O)OC[C@H]1O[C@@H](n2cnc3c(N)ncnc32)[C@H](O)[C@@H]1OP(=O)(O)O
Kind of data set: UHPLC, 3-hydroxypropionyl-CoA formation. Particulars: hydratase reaction, 100 mM Tris-HCl pH 7.8, 65 °C, apparent Km. The text has this: UHPLC, 3-hydroxypropionyl-CoA formation on crotonyl-CoA hydratase Msed_0336
The source holds these as a separate data set.

Substrate in data set [7]: C[C@H](O)CC(=O)SCCNC(=O)CCNC(=O)[C@H](O)C(C)(C)COP(=O)(O)OP(=O)(O)OC[C@H]1O[C@@H](n2cnc3c(N)ncnc32)[C@H](O)[C@@H]1OP(=O)(O)O
Kind of data set: Ccr-coupled dehydratase assay, UHPLC. The note with it: dehydratase reaction, 100 mM Tris-HCl pH 7.8, 42 °C, 1 mM NADPH and NaHCO3 for coupling enzyme, apparent Km. The text has this:
Ccr-coupled dehydratase assay, UHPLC on crotonyl-CoA hydratase Msed_0336
This is another data set of the same source.

Substrate in data set [8]: CCCCC/C=C/C(=O)SCCNC(=O)CCNC(=O)[C@H](O)C(C)(C)COP(=O)(O)OP(=O)(O)OC[C@H]1O[C@@H](n2cnc3c(N)ncnc32)[C@H](O)[C@@H]1OP(=O)(O)O
The experiment in a line: UHPLC, 3-hydroxyoctanoyl-CoA formation. Particulars: hydratase reaction, 100 mM Tris-HCl pH 7.8, 65 °C, apparent Km. The text has this: UHPLC, 3-hydroxyoctanoyl-CoA formation on crotonyl-CoA hydratase Msed_0336
The source holds these as a separate data set.

Substrate in data set [9]: C/C=C/C(=O)SCCNC(=O)CCNC(=O)[C@H](O)C(C)(C)COP(=O)(O)OP(=O)(O)OC[C@H]1O[C@@H](n2cnc3c(N)ncnc32)[C@H](O)[C@@H]1OP(=O)(O)O
The experiment in a line: UHPLC, 3-hydroxybutyryl-CoA formation. Particulars: hydratase reaction, 100 mM Tris-HCl pH 7.8, 65 °C, apparent Km. The text has this: UHPLC, 3-hydroxybutyryl-CoA formation on crotonyl-CoA hydratase Msed_0336
This is another data set of the same source.

Substrate in data set [10]: C=C(C)C(=O)SCCNC(=O)CCNC(=O)[C@H](O)C(C)(C)COP(=O)(O)OP(=O)(O)OC[C@H]1O[C@@H](n2cnc3c(N)ncnc32)[C@H](O)[C@@H]1OP(=O)(O)O
Kind of data set: UHPLC, 3-hydroxy-2-methylpropionyl-CoA formation. Particulars: hydratase reaction, 100 mM Tris-HCl pH 7.8, 65 °C, apparent Km. The text has this:
UHPLC, 3-hydroxy-2-methylpropionyl-CoA formation on crotonyl-CoA hydratase Msed_0336
This is another data set of the same source.

B1: crotonyl-CoA hydratase Msed_0384 (Metallosphaera sedula DSM 5348) (protein)
chain: MRTVIVEKGDVGIIRLNRPEKLNAINMEMVYDLVEALNELKSQVRAVIITGNGKAFSAGADVKEMLDMSIEQVTREGHMPLWDALRGFRKPVIAALNGVAAGGGLELAMACDMIVAGESARLGQPEINLGIIPGAGGTQRLTRTVGKYRAMEMVLTGRLITAWDAYRMGLVTKVVPDEALIPEAMRLAREITGKSGFAVELGKEAVNRALDTLLQQGLDLERRNFYVTLVSQDGREGMKAFLEKRKPEWKT
notes: full-length, N-terminal His10-tag (pET16b), recombinant in E. coli Rosetta 2 (DE3)
For B1, the Michaelis constant (Km) (usually the substrate concentration at which the rate is half of its maximum) in data set [1] was determined as 220 ± 20 µM; in data set [2], 50 ± 10 µM; in data set [3], 500 ± 60 µM; in [4], 180 ± 30 µM; in [5], 70 ± 30 µM.

B2: crotonyl-CoA hydratase Msed_0336 (Metallosphaera sedula DSM 5348) (protein)
chain: MKVLYEERDGISWITFNRPEKLNALDAESWKLLGDHVRRGDSSDSRAIVITGNGRAFSSGDDIGSMTSLNDQREAEDFFNALLYAVDGLIYTNKPVIGAVNGLAYGGGCEILLFMDVVISTRSARFSIPEGRLGLIPPMALSVGYNSIGRSVAWLAITGEEIDAMRAKEIGLVDIVGDDLNLELEKVMARISSMDQGSIKVIKAWLRKSREPIREAIRELSFMSLSTQAKERMKRFLSR
notes: as for B1
Regarding B2, the Km in data set [6] was determined as 70 ± 5 µM; in data set [7], 70 ± 20 µM; in data set [8], 90 ± 10 µM; in [9], 80 ± 10 µM; in data set [10], 290 ± 50 µM.
